Like-named read-outs stand apart in the source and are kept apart here.
Key:
[1] = molecular target: T1, CXCR4 chemokine receptor (human), P61073
T1 chain: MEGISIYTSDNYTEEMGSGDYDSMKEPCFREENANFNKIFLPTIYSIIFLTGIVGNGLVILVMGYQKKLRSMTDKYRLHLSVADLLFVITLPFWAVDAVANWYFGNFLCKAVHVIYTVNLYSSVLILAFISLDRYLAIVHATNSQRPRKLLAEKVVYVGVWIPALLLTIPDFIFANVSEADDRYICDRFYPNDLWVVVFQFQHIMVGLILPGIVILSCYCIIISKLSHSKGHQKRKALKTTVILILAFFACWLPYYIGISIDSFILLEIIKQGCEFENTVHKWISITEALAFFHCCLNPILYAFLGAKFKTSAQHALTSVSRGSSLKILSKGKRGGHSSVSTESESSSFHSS

[2] = molecular target: T1, CXCR4 chemokine receptor (human), P61073; assay: anti-CXCR4 mAb 12G5 competitive binding assay, IC50 against SDF-1
[3] = molecular target: T1, CXCR4 chemokine receptor (human), P61073; assay: anti-CXCR4 mAb 12G5 competitive binding assay
[4] = molecular target: T1, CXCR4 chemokine receptor (human), P61073; assay: ^125I-SDF-1α competitive binding assay, IC50 against SDF-1
[5] = molecular target: T1, CXCR4 chemokine receptor (human), P61073; assay: cell-based or functional assay

LGASWHRPDKCCLGYQKRPLP (modifications not checked) [V1 peptide (vMIP-II, 1-21)]
IC50 [1]: 190 nM | fold less potent than SDF-1 [2]: 33 fold | IC50 [3]: 640 nM | fold less potent than SDF-1 [4]: 70 fold | chemotaxis assay, IC50 [5]: 1000 nM | intracellular calcium influx in Sup T1 cells: block of the SDF-1 signal [5]: 200 µM
